Measured values taken from patent publication US20250277029A1, “CANNABINOID TYPE 1 RECEPTOR BINDING PROTEINS AND USES THEREOF” (AMGEN INC., priority 2022, published 2025).
Substitutions are numbered along the chain they refer to.

T1: XCR1-SMALP (Homo sapiens, UniProt P46094)
T1 sequence (P46094 1-333): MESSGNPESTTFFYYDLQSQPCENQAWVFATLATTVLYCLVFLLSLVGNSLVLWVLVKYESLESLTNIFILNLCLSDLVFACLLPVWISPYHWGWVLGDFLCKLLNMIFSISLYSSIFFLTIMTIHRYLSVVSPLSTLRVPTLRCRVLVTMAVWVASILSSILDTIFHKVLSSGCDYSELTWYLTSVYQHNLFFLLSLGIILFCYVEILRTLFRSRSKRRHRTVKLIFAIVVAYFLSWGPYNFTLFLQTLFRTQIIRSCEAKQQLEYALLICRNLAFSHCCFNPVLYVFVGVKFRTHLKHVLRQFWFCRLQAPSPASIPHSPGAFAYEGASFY

B1: LIBC673952-1: further cognate affinity-matured variant; HV SEQ ID NO: 368, LV SEQ ID NO: 367; 52777 in YTE format (antibody, V domains shown)
VH: QVQLQESGPGLVKPSQTLSLTCTVSGGSIRRGGDYWSWIRQHPGKGLEWIGHVYYTGQTTYNPSFRGRVTISVNTYKNQFSLKLSSVTAADTAVYYCARDYDILTGYSYYYYGLDVWGQGTTVTVSS
VL: DIVMTQSPLSLPVTPGEPASISCRSSQSLLHRSGYNYLDWYLQKPGQSPQLLIYQGSNRASGVPDRFSGSGSGTDFTLKISRVEAEDVGVYYCRQARALPRTFGQGTKVEIKR
modifications: YTE Fc format
notes: 52777 in YTE format
B2: LIBC680574-1: further VK1 LC-optimized variant; HV SEQ ID NO: 460, LV SEQ ID NO: 459; 52778 in YTE format (antibody, V domains shown)
VH: B1 VH with S37A, Q58S, T60K, R66K, G67D, V69A, D100N, I103T, L114M
VL: DIQMTQSPSSLSASVGDRVTITCRASQSISSYLNWYQQKPGKAPKLLIYGARRLGSGVPSRFSGSGSGTDFTLTISSLQPEDFATYYCQQYSSLPVTFGGGTKVEIKR
modifications: YTE Fc format
notes: further VK1 LC-optimized variant; 52778 in YTE format
B3: LIBC523661-1: cognate affinity-matured 10D10 variant; HV SEQ ID NO: 98, LV SEQ ID NO: 97 (antibody, V domains shown)
VH: B1 VH with V53I, T56E, Q58S, T60K, R66K, V69A, I103P, L104V, Y107H, L114M
VL: B1 VL with H31T, R32S, L38V, L99I
B4: LIBC527814-1: LC-swapped affinity-matured 10D10 variant; HV SEQ ID NO: 236, LV SEQ ID NO: 235 (antibody, V domains shown)
VH: B1 VH with S37G, Y55Q, Q58S, T60K, R66K, G67D, V69A, D100N, I103T, L114M
VL: DIQMTQSPSTLSASVGDRVTITCRASQSISNYLNWYQQKPGKAPKLLIYAASSLHSGVPSRFSGSGSGTDFTLTISSLQPEDFASYYCQQYQSYPLTFGQGTKVEIKR
B5: LIBC527997-1: LC-swapped affinity-matured 10D10 variant; HV SEQ ID NO: 226, LV SEQ ID NO: 225 (antibody, V domains shown)
VH: QVQLQESGPGLVKPSQTLSLTCTVSGGSIRRGGDYWAWIRQHPGKGLEWIGHIYQTGSTNYNPRFKGRATISVNTYKNQFSLKLSSVTAADTAVYYCARNYDTLTGYSYYYYGMDVWGQGTTVTVSS
VL: B4 VL with T10S
B6: LIBC527919-1: LC-swapped affinity-matured 10D10 variant; HV SEQ ID NO: 252, LV SEQ ID NO: 251 (antibody, V domains shown)
VH: B5 VH with I53V, N60A, R64N, G67D, T103A, T105S
VL: B2 VL with M4L, S30I, G50A, R52S, R53S, G55R, S93N, L94Y, V96L, K103R
B7: LIBC680812-1: further VK1 LC-optimized affinity-matured variant (antibody, V domains shown)
VH: B5 VH with A37G, I53V, N60K, R64S, G67D
VL: B2 VL with G50S, G55S, S92R, L94Y, V96I
B8: LIBC681593-1: further VK1 LC-optimized affinity-matured variant (antibody, V domains shown)
VH: B5 VH
VL: B2 VL with G50N, S92R, L94S
B9: LIBC680800-1: further VK1 LC-optimized affinity-matured variant (antibody, V domains shown)
VH: B5 VH
VL: B2 VL with G50S, R53A, G55S, S92R, S93K, L94F, V96L
B10: LIBC680562-1: further VK1 LC-optimized affinity-matured variant (antibody, V domains shown)
VH: B5 VH
VL: B2 VL with G50S, G55S, S92A, S93K, L94S, V96I
B11: LIBC674200-1: further cognate affinity-matured variant (antibody, V domains shown)
VH: QVQLQESGPGLVKPSQTLSLTCTVSGGSIRRGGDYWSWIRQHPGKGLEWIGHVYYTGQTAYNPNFRNRVRISVNTYKNQFSLKLSSVTAADTAVYYCARGYDVSGYSYYYYGMDVWGQGTTVTVSS
VL: B1 VL with Q55L, D65G, R94M, A96S, R97L, A98Q, L99T
B12: LIBC674229-1: further cognate affinity-matured variant (antibody, V domains shown)
VH: B11 VH with V53I, Y55Q, A60K, N64S, R66K, N67G
VL: B1 VL with R94M, A96S, R97L, A98Q, L99T
B13: LIBC674090-1: further cognate affinity-matured variant (antibody, V domains shown)
VH: B11 VH with V53I, T56A, Q58S, N67G, V103T, M113L
VL: B1 VL with R94M, A96S, R97L, A98Q, L99T

What follows are molecules tested on diet-induced obese (DIO) huCB1 knock in (KI) mice (assay: Diet-induced obese huCB1 knock in mice, 30 mg/kg QW for 35 days: body weight, food intake, fat mass, liver weight). Details: YTE format.
Type: in vivo, mouse
Experimental: The further affinity matured antibodies LIBC673952 (52777) and LIBC680574 (52778) in YTE format (Dall'Acqua et al., The Journal of Immunology, 169: 5171-5180 (2002)) was scaled up for testing in diet-induced obese (DIO) transgenic mice with huCB1 knocked in. […] The antibodies (52777, 52778, and 37940) and a control antibody (huIgG control) were administered to the mice at 30 mg/kg QW for 35 days, and the body weight and food intake of the animals were measured every 3-4 days and the results are shown in FIGS. 10A and 10B.
For B1, the “average daily food intake” value was “did not change significantly” and the “body weight of the animals” value was “reduced body weight”.
In the case of B2, the “average daily food intake” value is reported as “did not change significantly” and the “body weight of the animals” value is reported as “reduced body weight”.

These molecules were tested on CB1-nanodisc (assay: Octet affinity assay with CB1-nanodisc). Details: 1:1 Langmuir model.
Type: binding, human
Experimental: Affinity assay using Octet. The Octet@HTX (Sartorius, Germany) instrument was used to determine affinities of anti-CB1 antibodies. Prior to experiment, Streptavidin (SA) biosensors (ForteBio, #18-5021) were pre-hydrated for 10 min in Octet assay buffer containing 10 mM Tris (Fisher, #BP152-1), 150 mM NaCl (Fisher, #5271-10), 1 mM CaCl2) (Fisher, #BP510-500), 0.1 mg/mL BSA (BioShop, #ALB001.1), and 0.1% Triton-X 100 (Calbiochem, #9410-OP), pH7.4. SA biosensors were loaded with biotinylated anti-human Fc antibody (Invitrogen, #A18827) followed by one baseline step of 60 s in Octet assay buffer. Anti-CB1 antibodies were prepared in Octet assay buffer and captured by the anti-human Fc antibody prior to being submerged in wells containing different concentrations of CB1-nanodisc (#CB1-008, in-house) for 5 min, followed by 10 min dissociation. […] SA biosensors were used once without regeneration. For data evaluation, ForteBio Data Analysis v11.0 software was used. The kinetic rate constants, association rate constant (ka, M−1s−1), dissociation rate constant (kd, s−1), and the equilibrium rate constant (KD, M) were determined by using a 1:1 Langmuir model.
B3 was tested, and the “Octet (nanodisc) k off” value was 0.00275 s⁻¹ and the “Octet (nanodisc) k on” value was 35700 M⁻¹ s⁻¹.
For B4, the “Octet (nanodisc) k off” value was 0.00198 s⁻¹ and the “Octet (nanodisc) k on” value was 56600 M⁻¹ s⁻¹.
In the case of B5, the “Octet (nanodisc) k off” value is reported as 0.00136 s⁻¹ and the “Octet (nanodisc) k on” value is reported as 51800 M⁻¹ s⁻¹.
For B6, the “Octet (nanodisc) k off” value was 0.00339 s⁻¹ and the “Octet (nanodisc) k on” value was 56200 M⁻¹ s⁻¹.

What follows are molecules tested against T1, XCR1-SMALP (assay: Yeast-display non-specific binding to irrelevant XCR1-SMALP). Details: 25 nM; fold change compared to LIBC528116 (Fab), after background subtraction.
Source text: All eighteen cognate variants met the stringent binding improvement threshold against huCB1I-GFP-SMALP and had minimal binding to irrelevant XCR1-SMALP and empty-ND (Table 32). […] For LIBC674043-1 and LIBC674200-1, VH R149S and VL G76D germline reversion mutations were also included in the panel of IgG1 SEFL2 mAbs produced for functional testing.
B7 was tested, and the “25 nM XCR1-SMALP-GFP, relative binding fold change” value was 0.59.
For B2, the “25 nM XCR1-SMALP-GFP, relative binding fold change” value was 0.56.
B8 was tested, and the “25 nM XCR1-SMALP-GFP, relative binding fold change” value was 0.72.
With B9 the “25 nM XCR1-SMALP-GFP, relative binding fold change” value was 0.47.
With B10 the “25 nM XCR1-SMALP-GFP, relative binding fold change” value was 0.64.

Same assay, conditions: 50 nM; fold change compared to LIBC523797-1(Fab), after background subtraction
For B1, the “50 nM XCR1 SMALP, relative binding fold change” value was 0.59.
B11 was tested, and the “50 nM XCR1 SMALP, relative binding fold change” value was 0.79.
With B12 the “50 nM XCR1 SMALP, relative binding fold change” value was 0.80.
In the case of B13, the “50 nM XCR1 SMALP, relative binding fold change” value is reported as 0.74.
